Molecular target: sHLA-A2 (soluble class I HLA-A2) (human)
Experiment: 65 ml class I HLA SHARC, 24.4 mg W6/32 at 97 µg/ml in PBS

antibody recovered in the elution: 8 mg | antibody that passed through the column: 11.7 mg
Substance: W6/32 pan class I HLA monoclonal antibody

From patent US20130245385A1
